Source: publication PMC2192215 (The Journal of Experimental Medicine, 1995)
Entries after “also recorded” stand apart in the source; their conditions may differ. Blank lines part the entries; values can stand above or below the molecule they belong to. Ends that are not written are not given here.

What was measured:
Seu.5 T cells = assay: T cell hybridoma assay: IL-2 production by Seu.5 T cells; type: cell-based, A/J mice; settings: APC pulsed with the peptide, tissue culture assay; data not shown
[1] = cited from earlier work
I-Au molecule = target: T1, I-Au molecule (Mus musculus, UniProt P06344+P14438); settings: cited from earlier work
T1 sequence (P06344 whole entry, looked up): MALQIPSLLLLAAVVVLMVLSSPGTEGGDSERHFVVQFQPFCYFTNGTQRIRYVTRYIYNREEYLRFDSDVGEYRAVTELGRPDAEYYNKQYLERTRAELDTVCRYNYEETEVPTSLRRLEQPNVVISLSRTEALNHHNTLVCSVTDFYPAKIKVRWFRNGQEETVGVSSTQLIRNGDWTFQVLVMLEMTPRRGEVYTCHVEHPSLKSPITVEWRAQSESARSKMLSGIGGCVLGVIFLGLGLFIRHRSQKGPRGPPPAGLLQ
T1 sequence (P14438 whole entry, looked up): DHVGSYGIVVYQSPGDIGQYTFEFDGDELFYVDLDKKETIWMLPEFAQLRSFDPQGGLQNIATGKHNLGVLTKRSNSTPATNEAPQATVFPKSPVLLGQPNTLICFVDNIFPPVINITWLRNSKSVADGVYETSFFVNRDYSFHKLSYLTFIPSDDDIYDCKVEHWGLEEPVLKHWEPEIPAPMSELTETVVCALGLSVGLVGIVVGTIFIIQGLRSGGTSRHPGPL

A/J mice = assay: Induction and quantitation of autoimmune myocarditis in A/J mice; type: in vivo; settings: experiment 1; 100 μg myosin or 100 nmol peptide; H&E cross-sections, day 21
[2] = target: purified I-Ak molecules (mouse); assay: radioligand binding
[3] = target: I-Ak molecules on the surface of I-Ak-expressing M12.C3.F6 B-lymphoma cells (mouse); assay: SDS/PAGE stability assay

Molecule: SAFDVLSFTAEEKA [myhc0~(335-348)]
stimulation of Seu.5 T cells by peptide-pulsed APC (Seu.5 T cells): strongly stimulated

Molecule: MBP(Ac1-11): myelin basic protein epitope (Ac-MGNHSGKRELS; UniProt P04370 1-11, looked up, fragment)
induction of experimental autoimmune encephalomyelitis [1]: could strongly induce experimental autoimmune
binding to I-Au (I-Au molecule): bound very weakly

Molecule: DSAFDVLSFTAEEKAGVYK [myhca(334-352)]
severity of myocarditis in photomicrographs (Fig. 4 B) (A/J mice): Moderate; also recorded: Severe

Molecule: YEDYGILQINSR [HEL(YE52-61), unlabeled]
relative IC50 (relative to unlabeled HEL(YE52-61)) [2]: 1

Molecule: DGSTDYGILQINSR (also: 125I-labeled, residue not given here) [125I-labeled HEL(48-61)]
percent SDS-stable I-Ak [3]: 96%

Molecule: YEDYGILQINSR (also: 125I-labeled, residue not given here) [125I-labeled HEL(YE52-61)]
maximum binding in the absence of competitors [2]: 148000 cpm

More lines, now with the values ahead:

relative IC50 (relative to unlabeled HEL(YE52-61)) [2]: 33.3
Molecule: VNTFVHESLADVQA [bovine RNase(43-56)]

relative IC50 (relative to unlabeled HEL(YE52-61)) [2]: 15.6
Molecule: DSAFDVLSFTAEEKAGVYK [myhc alpha(334-352) peptide, unlabeled]

percent SDS-stable I-Ak [3]: 50%
Molecule: DSAFDVLSFTAEEKAGVYK (not fully specified; also: radiolabel on Tyr, isotope not given here) [myhc alpha(334-352) peptide, radiolabeled]
